Paper PMC8217511, “Tuning SAS-6 architecture with monobodies impairs distinct steps of centriole assembly” (Nature Communications, 2021)

How the values were obtained:
[1] = biological target: the molecule itself; assay: PORT-HS-AFM; CrSAS-6_NL adsorbed on mica, 11-16 nM (equilibrium) or 44 nM (assembly reaction); 150 mM KCl, 20 mM Tris-HCl pH 8.0; monobodies at 6.8 µM, 14.5 µM and 12.9 µM
[2] = biological target: the molecule itself; assay: crystal structure; CrSAS-6 combined with a 2x molar excess of monobody, complex purified by SEC; sitting drop vapor diffusion at 18 °C

B1: CrSAS-6_NL, N-terminal head domain and the entire coiled-coil of Chlamydomonas reinhardtii SAS-6 (domain or fragment, UniProt A9CQL4 1-503, looked up)
chain: MPLLLDDGDPKAQTGFDLSTATTLFWRPVPVHVKQQDREDVLEELTFRILTGVAKQNHNLRILRIHISSDSDLFFLHTLEVSEEDFQSLKNDQGILVDFASFPGKIISLLEKCILAQPGDSPRFQAVLTIRGGESVFKIVEINDFKQLPHITLAFRPGNDSVVKQFLAFRLSEVKGTCHDLSDDLSRTRDDRDSMVAQLAQCRQQLAQLREQYDKHLLEVQAQAKTQQASAHEERIREKSQLKDQFEKERGEMEGRYRDQIAALNTRLGELDTENRKLREVKYELDTKVSELSHKLGSSEGSNRSLEEETARLRSLNQQLSSSKHELEIQLNEAKAKVLALDEKAQSQGDVIEQQRGRLRDMEAALRQTEQRCADLRDTLASAEGRAKEAQAEVLKGNQAIEKLTNDLRLAKEKTKRKAAIILRQEEELQEREQSLANATRDVGVLGQQAESLRKDVASLHSENDSLRSKLEDSKQQLQSNEQMIRWLNQQVTEAQLHASGAT
notes: SAS-6 of Chlamydomonas reinhardtii, N-terminal head domain and entire coiled-coil, residues 1-503; pFLOAT2-His vector, PreScission Protease site after the His tag; homodimers that assemble into ring polymers; source: E. coli BL21(DE3), purified (HisTrap, SEC)
Question: Does B1 bind [1]?
Answer: binds

B2: CrSAS-6_N, N-terminal globular domain of Chlamydomonas reinhardtii SAS-6 (domain or fragment, UniProt A9CQL4 1-159, looked up)
chain: MPLLLDDGDPKAQTGFDLSTATTLFWRPVPVHVKQQDREDVLEELTFRILTGVAKQNHNLRILRIHISSDSDLFFLHTLEVSEEDFQSLKNDQGILVDFASFPGKIISLLEKCILAQPGDSPRFQAVLTIRGGESVFKIVEINDFKQLPHITLAFRPGN
notes: SAS-6 of Chlamydomonas reinhardtii, N-terminal globular head domain, residues 1-159 (the methods list the two ranges in the reverse order of the two names); source: E. coli BL21(DE3), purified (HisTrap, tag cleavage by protease, SEC); not shown: His6, N-terminal, cleaved; AVI-tag, N-terminal, cleaved
Question: Does B2 bind [2]?
Answer: binds

B3: CrSAS-6_6HR-[F145E] (domain or fragment, Chlamydomonas reinhardtii, UniProt A9CQL4 1-226, looked up)
chain: MPLLLDDGDPKAQTGFDLSTATTLFWRPVPVHVKQQDREDVLEELTFRILTGVAKQNHNLRILRIHISSDSDLFFLHTLEVSEEDFQSLKNDQGILVDFASFPGKIISLLEKCILAQPGDSPRFQAVLTIRGGESVFKIVEINDEKQLPHITLAFRPGNDSVVKQFLAFRLSEVKGTCHDLSDDLSRTRDDRDSMVAQLAQCRQQLAQLREQYDKHLLEVQAQAKT
notes: SAS-6 of Chlamydomonas reinhardtii, residues 1-226 (limits as for CrSAS-6_6HR) with F145E; arranged as homodimers in the crystal; also called CrSAS-6_6HR harboring the mutation F145E; source: E. coli BL21(DE3), purified (HisTrap, tag cleavage by protease, SEC); not shown: His6, N-terminal, cleaved; AVI-tag, N-terminal, cleaved
Question: Does B3 bind [2]?
Answer: binds

B4: CrSAS-6_6HR, N-terminal domain and six heptad repeats of the coiled-coil of Chlamydomonas reinhardtii SAS-6 (domain or fragment, UniProt A9CQL4 1-226, looked up)
chain: MPLLLDDGDPKAQTGFDLSTATTLFWRPVPVHVKQQDREDVLEELTFRILTGVAKQNHNLRILRIHISSDSDLFFLHTLEVSEEDFQSLKNDQGILVDFASFPGKIISLLEKCILAQPGDSPRFQAVLTIRGGESVFKIVEINDFKQLPHITLAFRPGNDSVVKQFLAFRLSEVKGTCHDLSDDLSRTRDDRDSMVAQLAQCRQQLAQLREQYDKHLLEVQAQAKT
notes: homodimer through the coiled-coil; source: E. coli BL21(DE3), purified (HisTrap, tag cleavage by protease, SEC); not shown: His6, N-terminal, cleaved; AVI-tag, N-terminal, cleaved
Question: Does B4 bind [2]?
Answer: binds
